Measurements: paper PMC11855334, “Exploring the Potential of Glutathione Reductase Overexpression to Improve Tellurium Nanoparticle Production in Escherichia coli” (International Journal of Molecular Sciences, 2025)

B1: glutathione reductase from Psychrobacter immobilis strain BNF08 (enzyme)
chain: MTKHYDYIAIGGGSGGIASINRAASYGKKCAVIEANQLGGTCVNLGCVPKKVMWYGAQIAEAIHKYAPDYGFNVDVKGFDFQKLVQSRQQYIENIHRSYDNNLAKNGVEVIKGFAKFVDTNTVEVNGELITADHILIATGGHPIQPDIKGAEYGIDSDGFFALNHLPKRVAIVGAGYIAVEIAGVLNSLGAEVHLYVRQHSPLRSFDHSVVEALLIEMEQDGIQLHTNTTLTEVNKNEDGSLTLCTENGSLDTTDCLIWAIGRAPSTDNINLQVTGVETNEIGKIKVDKFQNTNVKNIYAVGDIIENSVDLTPVAIAAGRRLSERLFNNKPNEHLDYTLIPTVIFTHPAIGTIGLSEIDAVERYGKENIKCYKSTFTSMYSAVTQHRQKCMMKLVCLGDEEKVIGLHGLGFGVDEMIQGFAVAIKMGATKADFDNTVAIHPTGSEEFVTMR
B2: glutathione reductase from E. coli (enzyme, UniProt P06715 1-450, looked up)
chain: MTKHYDYIAIGGGSGGIASINRAAMYGQKCALIEAKELGGTCVNVGCVPKKVMWHAAQIREAIHMYGPDYGFDTTINKFNWETLIASRTAYIDRIHTSYENVLGKNNVDVIKGFARFVDAKTLEVNGETITADHILIATGGRPSHPDIPGVEYGIDSDGFFALPALPERVAVVGAGYIAVELAGVINGLGAKTHLFVRKHAPLRSFDPMISETLVEVMNAEGPQLHTNAIPKAVVKNTDGSLTLELEDGRSETVDCLIWAIGREPANDNINLEAAGVKTNEKGYIVVDKYQNTNIEGIYAVGDNTGAVELTPVAVAAGRRLSERLFNNKPDEHLDYSNIPTVVFSHPPIGTVGLTEPQAREQYGDDQVKVYKSSFTAMYTAVTTHRQPCRMKLVCVGSEEKIVGIHGIGFGMDEMLQGFAVALKMGATKKDFDNTVAIHPTAAEEFVTMR
notes: glutathione reductase (GR) of Escherichia coli; cloned in earlier work of the same laboratory; also called E. coli GR; GR; source: E. coli C41 (DE3), purified (HisTrap HP)
B3: glutathione reductase from Enterobacter cloacae strain MF01 (enzyme)
chain: MTKHYDYIAIGGGSGGIASINRAAMYGQKCALIEAKALGGTCVNVGCVPKKVMWHAAQIREAIHMYGPDYGFDTTINHFDWEKLIASRTAYIDRIHTSYDNVLGKNNVDVIHGFARFVDAKTIEVNGETITADHILIATGGRPSHPNIPGAEYGIDSDGFFVLPALPERVAVVGAGYIAVELAGVINGLGAEAHLFVRKHAPLRSFDPLIVDTLVEVMNTEGPTLHTNAVPKAVIKNADGSLTLELEDGRSQTVDCLIWAIGREPANDNFNLAVTGVKTDEKGYIVVDKFQNTSVPGIYAVGDNTGAVELTPVAVAAGRRLSERLFNNKPDEHLDYSNIPTVVFSHPPIGTVGLTEPQAREQYGDDQVKVYKSAFTAMYTAVTSHRQPCRMKLVCVGPEEKIVGIHGIGFGMDEILQGFAVALKMGATKKDFDNTVAIHPTAAEEFVTMR

How the values were obtained:
[1] = molecular target: glutathione reductase from Pseudomonas lini strain BNF22 (Pseudomonas lini (strain BNF22)); test: SEC; Superdex 200; 20 mM sodium phosphate pH 7.4, 200 mM NaCl, 1 mM β-mercaptoethanol; elution times compared to a gel filtration protein standard; homodimer
[2] = molecular target: the molecule itself; test: as above

| Molecule | stoichiometry N [1] | stoichiometry N [2] |
| --- | --- | --- |
| glutathione reductase from Pseudomonas lini strain BNF22 (enzyme) | 2 | – |
| B1 | – | 2 |
| B2 | – | 2 |
| B3 | – | 2 |
